{"source": "paper PMC7265302", "about": "(Nature Communications, 2020)", "target": "MavC (residues 1–385, [change]) (Legionella pneumophila, UniProt Q5ZTL4 1-385)", "test": "crystal structure", "details": "both partners purified", "data": [{"binder": "UBE2N (K94A), the UBE2N moiety of the conjugated UBE2N~Ub (enzyme, UBE2N, human E2 enzyme) MAGLPRRIIKETQRLLAEPVPGIKAEPDESNARYFHVVIAGPQDSPFEGGTFKLELFLPEEYPMAAPKVRFMTKIYHPNVDKLGRICLDILKDAWSPALQIRTVLLSIQALLSAPNPDDPLANDVAEQWKTNEAQAIETARAWTRLYAMNNI", "values": [{"measurement": "binding result", "value": "binds"}]}]}
